In a protein production outcome set (Wang et al. 2014):

Assay: label from the status in PepcDB records

Sequence	protein production
MSLSVLDAPASQPCCPTGVTPEPSSRGPSARRVALLLAGALVAWIVAYAAAHPLSRWLTFGLLGLAEGSHLGESLAFFLYDVPKVLLLLTLIVFLVGIVRSFFTAERTRAILVGKRESVGNVVAALLGVVTPFCSCSAIPLFLGFVEVGVPLGVTFSFLVSAPMVNEVALVLLLGLFGWKVAALYLVTGLTIAILAGFVLGRMKLERHVEPWVYESMKGEARFEKEHLGFAGRVERGLQAVREVVGKVWPWVVAGIAVGAGIHGYVPEGLLASFMGKSAWWSVPAAVALGVPMYSNAAGIIPVVEALLGKGAALGTVLAFMMAVIGLSLPEIVILRKVLRPPLILAFVGVVASGILLVGWLFNAVL	failed
MRTVLNILNFVLGGFATTLAWLLATLVSIVLIFTLPLTRSCWEITKLSLFPYGNEAIHVDELNPAAKSVLMNTGGTLLNIFWLLFFGWWLCLMHIASGIAQCVTIIGIPVGIANFKIAAIALWPVGRRVVSVETARAAREANARRRFE	failed
MTSDGATSTSAAAAAAAAAAARRKPSWRERENNRRRERRRRAVAAKIYTGLRAQGDYNLPKHCDNNEVLKALCVEAGWVVEEDGTTYRKPLPGEIAGTSSRVTPYSSQNQSPLSSAFQSPIPSYQVSPSSSSFPSPSRGEPNNNMSSTFFPFLRNGGIPSSLPSLRISNSCPVTPPVSSPTSKNPKPLPNWESIAKQSMAIAKQSMASFNYPFYAVSAPASPTHRHQFHTPATIPECDESDSSTVDSGHWISFQKFAQQQPFSASMVPTSPTFNLVKPAPQQMSPNTAAFQEIGQSSEFKFENSQVKPWEGERIHDVGMEDLELTLGNGKARG	failed
PHRAVVNFLLSMTNQPGINAGDRLLAVTSISFDISVLELFLPLISGASLVLADSEAAADGQALIKLAMHQDVTFIQATPSNYWLMLEAGWPSTLKLKVLCGGEALPPVLAQKLLQRSDSVWNMYGPTETTIWSAISRVTGSASTLGRP	failed
PSPGGQMHAGISSFQQSNSSGTYGPQMSQYGPQGNYSRPPAYSGVPSASYSGPGPGMGISANNQMHGQGPSQPCGAVPLGRMPSAGMQNRPFPGNMSSMTPSSPGMSQQGGPGMGPPMPTVNRKAQEAAAAVMQAAANSAQSRQGSFPGMNQSGLMASSSPYSQPMNNSSSLMNTQAPPYSMAPAMVNSSAASVGLADMMSPGESKLPLPLKADGKEEGTPQPESKSKDSYSSQGISQPPTPGNLPVPSPMSPSSASISSFHGDESDSISSPGWPKTPSSPKSSSSTTTGEKITKVYELGNEPERKLWVDRYLTFMEERGSPVSSLPAVGKKPLDLFRLYVCVKEIGGLAQVNKNKKWRELATNLNVGTSSSAASSLKKQYIQYLFAFECKIERGEEPPPEVFSTGDTKKQPKLQPPSPANSGSLQGPQTPQSTGSNSMAEVPGDLKPPTPASTPHGQMTPMQGGRSSTISVHDPFSDVSDSSFPKRNSMTPNAPYQQGMSMPDVMGRMPYEPNKDPFGGMRKVPGSSEPFMTQGQMPNSSMQDMYNQSPSGAMSNLGMGQRQQFPYGASYDRRHEPYGQQYPGQGPPSGQPPYGGHQPGLYPQQPNYKRHMDGMYGPPAKRHEGDMYNMQYSSQQQEMYNQYGGSYSGPDRRPIQGQYPYPYSRERMQGPGQIQTHGIPLQMMGGPLQSSSSEGPQQNMWAARNDMPYPYQNRQGPGGPTQAPPYPGMNRTDDMMVPDQRINHESQWPSHVSQRQPYMSSSASMQPITRPPQPSYQTPPSLPNHISRAPSPASFQRSLENRMSPSKSPFLPSMKMQKVMPTVPTSQVTGPPPQPPPIRREITFPPGSVEASQPVLKQRRKITSKDIVTPEAWRVMMSLKSGLLAESTWALDTINILLYDDSTVATFNLSQLSGFLELLVEYFRKCLIDIFGILMEYEVGDPSQKALDHNAARKDDSQSLADDSGKEEEDAECIDDDEEDEEDEEEDSEKTESDEKSSIALTAPDAAADPKEKPKQASKFDKLPIKIVKKNNLFVVDRSDKLGRVQEFNSGLLHWQLGGGDTTEHIQTHFESKMEIPPRRRPPPPLSSAGRKKEQEGKGDSEEQQEKSIIATIDDVLSARPGALPEDANPGPQTESSKFPFGIQQAKSHRNIKLLEDEPRSRDETPLCTIAHWQDSLAKRCICVSNIVRSLSFVPGNDAEMSKHPGLVLILGKLILLHHEHPERKRAPQTYEKEEDEDKGVACSKDEWWWDCLEVLRDNTLVTLANISGQLDLSAYTESICLPILDGLLHWMVCPSAEAQDPFPTVGPNSVLSPQRLVLETLCKLSIQDNNVDLILATPPFSRQEKFYATLVRYVGDRKNPVCREMSMALLSNLAQGDALAARAIAVQKGSIGNLISFLEDGVTMAQYQQSQHNLMHMQPPPLEPPSVDMMCRAAKALLAMARVDENRSEFLLHEGRLLDISISAVLNSLVASVICDVLFQIGQL	not failed
MIRIGNLYVYLKNYIMKFTKLTIAFLSVFFCLVVACGSDGINDDPKTPDVTEPVTPNEPDEPDNPSVVKVPTLQKNVQDEWKIDSIDDGFIYYNYERYDDVSKAQQIVNVLEIDLLSNKYKVEFTYNNGDSLSTTAQVRGAIGGINGGYEQEAIYIRINGTNISEVTLPEGHLRYWKHDGALYSDGKSDIGIIYGGRNGKAAIDTYKQHSAKYLLASAPTLIDDYNPLGETFVGNYTMEQLESFDYEDYRRHQGVRHPRTVVAVTEDKDLLLVTIDGRWAGKAEGMSAKEVTLFLKKHFNPQYALNMDGGGSTTMYVKGKGAAKTDVVNYPTDNGVFNHYGQRRVTTHIIVKRK	failed
MSLTKYHDLKNKVIVIAGGIKNLGALTAKTFALESVNLVLHYHQAKDSDTANKLKDELEDQGAKVALYQSDLSNEEEVAKLFDFAEKEFGKVDIAINTVGKVLKKPIVETSEAEFDAMDTINNKVAYFFIKQAAKHMNPNGHIITIATSLLAAYTGFYSTYAGNKAPVEHYTRAASKELMKQQISVNAIAPGPMDTSFFYGQETKESTAFHKSQAMGNQLTKIEDIAPIIKFLTTDGWWINGQTIFANGGYTTREGHHHHHH	not failed
GKSFDAVRRTLSTELAQLRDDISRLMQAAVEAGAEAADDGEAVVISGERKLLDVTDIASDMDRLRKMFSLFEKKTDLLQLLDVSSRAQGVQIYIGGDSQLVPMEEVSVITAPYGVDGKVIGTLGVIGPTRMAYERVIPIVDITARLLSNALSHNQ	failed
MKSASGQEKSIVVRRFDPARFVALVRKESLQAMRDPSTLLIALVLPLILLFLFAYAVSLDVRHVRIGVVLESPGATARTLADAFSGTHYLDVTFAYDRREVAGKLIAGELRGYVVIPQNFERHFADTGSPLVQIITDGSQPNTANFVANYAQGVVQTWMASLTETMPMPAVQLEPRYWFNPELASRRALVPGAIAIIMTIIGTLLTALVVAREWERGTMEAILSTPASVLEILVGKLLPYFVLGMLSTLIAAALAVFLFNVPLRGSLFALLVLSAVFMMPALGQGLLISSLARNQFLASQLALFSGYLPAFMLSGFLFEIDAMPALIRAITWLIPARYFVSSLKTIFLAGDVWSVFLPDLLGMATIGLIFFLIAQRYTRKSLE	failed
MTKQDIRVALTIVALVLGLGWAIGYGIGLMTRPASVVPENPPHDALKSPARKAPRSGAVSGDTRYPDYEELYVNDYADLLDPAAEDRLRDKLIALYGHNGVEMTVLTIDTMGTYGHGGAIEPFATGLFNNWGIGDAERNDGVLVLIVRFDRKMRIEIGAGYERAWDARMQRVIDAGFLPYFRRDEYQEGIEAGVDETIRELTGAYPGAWDMGTAQRGWSWLARAVDRIGEWVLSLLLVPLGGAALWVRRYLRNRTRPCAQCRTPMLRAGEEADDEHLDGGQRLEEYLKSVDYDVWHCPDCGHIDIHRYKSWFSGYGACPQCNYRTLSTTSTVLSAATKTREGRKRVEYDCAHCGHHDSEIRTIPKISDSNSGGSGRSSFGGGSSSGGGASGSW	failed
MQLQLICEDPSQQSHLDELAARWQLSHTDESDFALVLTAERLELRKVDEPKLGAIFVDLIGGAVGHRRKFGGGKGQAIAKAAGLNKGATPTVLDGTAGLGRDAFVLASLGCKVQMVERHPVVAALLDDGLARAKQDPEIGTWVSERMSLIHASSHDALDQLAQDREFVKPDVVYLDPMYPHPENKKKSALVKKEMRVFQSLVGADLDADGLLEPALALATKRVVVKRPDYANWLNEQKPSMAIETKKNRFDVYVKASMALEHHHHHH	not failed
MIEHIIDIIIVLLAKLGYAGTFFGMLFESACIPIPSEIVLPFGGYLSSSSAPQGHTLNLVLVIISATLGGTVGSILAYTIGAKGGRILVYKYASKLHLSKEKIEKSEAVFDKYGDKIIFLSRLLPIIRTFISLPAGIAKMDFTKFTIYTLVGSAIWSTLLVYAGFVMGKNWESIRSYFHIADYLVAGAIILFIVYRIIVYIKKKTKK	failed
MFPHLALLNAHKRMHTDGEQQQQQQHNAQAGGDSIAVVSAQGLVQAQNIIGNGQMGQIQIVSSDTLEPVQQSVMQQQQHESKASKCINCGSSMLQQSKRKGPKQVRCESCMQAEQTAQQQQQLFVAQDG	failed
MTVAVIGAHGGIGRRLLPRLNEAGHDPIGVVRSEDQFAAIRDRGAEPRLGDLEGEVASALDGADAVVFTAGAGGSTGWDKTILVDLWGAERAVHACEEKEIDRFVMVSSRGAGDPESRQGPIKPYIVAKHVADRTLQRSSLDETILRPTRLTDAEGTGRVAAYVDTDPDAGDPIPRADVAQAVVQCLADDNTVGHAITLYGGDTPIGEALRPSGLEHHHHHH	failed
MSLIILTRDDEPRIFTPDSDAASPALHSTSPLPDPASASPLHREEKILPKVCNIVSCLSFSLPASPTDSGLASPTIITREGQQFWAKCLIWKYQLYLHGLHKKSDGRRDKQISASPST	failed
MSRLSAAAIELFEDLIRQQVEDKAIPSISYGLVDRDGLMGAGHIQRHDRGFVMGDDTCFRIGSITKTFTAVAVMQLAEKGLVDLDVDVSEYLPGFKPQNPFAGREGGPHGAQISLRKLMSHTAGLVREPKSGHYLDAARPPLADTVAELATSTLKQDPSLGQMHYSNAGIAVAGRVIETLTRKSYAEYVSENILKPLGMDQTSSGLAPGIAERLAPADMWTLEGDSPAPVFDLGGPPAGNIYSTTSDMARYVQCLLRGGFAPDGWQIVSPGSLREMWVPIGKRASGERVANTYGLCFGVGDVDGWTSVGHGGAVYGYSSQMILLPAAGVGVLIFSTLDFSNQIGARLGVEGLRIALAERRMGTLPVRPQGLPPVAADQLVALPGHYRHDTSGEVVEVKAKAGKLFLMGEGVPLQIRPVAGSDFTIDGRIYGHGAEYPHMNLSFPAPGALVWKGVNWSRIDALPAEAVPAEIAPHLGEYGPDFNITYLSYSHGELKCLIEYFCTHGCEPVEAGRFRMRGLLYEEEILEIDAIDDHGRRGIRVGPMFLERRHAPAA	failed
MWNYQKNILVCMIAGLGLSTCTPSDVSIPGAATIDVMNGFPDGESGYALGVSGCYAGKLGDFLLMAGGCNFPDKPVSEGGIKHYYKGIYIARVDDSSSLRWVKAGELPMEAAYGATVSLPDRLIFIGGSNSSDRFSSVLSFSFDCMKDSGLICETLPPLPHAVDNMSATLLGDTLYVLGGNRNGIPSSSMFSLCLDNYSAGWTEVPFPGRPRVQPVCSSLLGKLYVFGGFTSGGDASVSTDGLCYHPESGQWQVVKAPLTTKGEPLTLTGGASVSYGDVLLICAGGVNRDIFEDAISARYQMVRESEYLLQPIEWYRFNDQLLAYNVRSGEWIRIGVPSPMLARAGSSLVVFGDILFYIGGELKPGVRTPGICRISLQK	failed
MGVQSAVRVHRAISEIGQDAWDACAASTGDPFVSYDFLSILEESGCVAARTGWAPQHLTVLDEADQVAGVMPLYLKSHSQGEYVFDHSWADAYERAGGRYYPKLQCSSPFSPVTGSRLIVRPDIDAAEGRSALMGGALTLCERMGASSLHVTFPVEDQWRWMGERGMLLRQDQQYHWENRGYETFDDFLGALSANRRKTIRRERRDAQEGLEIVALTGADLTEDHWDAFFAFYMDTGGRKWGRPYLNRPFFSLLGQRMADKVLLILARRPGGPFIAGALNLLGRDCLYGRHWGCVEDAPFLHFELCYYQAIEHAIRLGLPRVEAGAQGQHKIARGYLPSAVYSAHWIADPMLREPVARYLERERAAVESDMEMLTEEYSPFREER	failed
